Results: the supplement of paper PMC10567573

B1: TTC32 (parent)
chain: YSAYIRRCACAASSDESPGSKCSP
B2: EHMT1 (parent)
chain: EEINKNISDFGRQQLLPPFPSLHQ

Variants of: B1
Assay: protein stability index of a GFP-peptide fusion (GPS, HEK-293T) (PSI 1-6); higher = more stable
Conditions: c terminus: a fixed tail appended
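Note: lentivirally expressed fusions sorted by FACS into six bins by GFP to DsRed ratio, PSI derived from sequencing read proportions per bin multiplied by bin number.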

Question: With YSAYIRRCACAASSDESPGSKMSP as the variant, how does the protein stability index read?
Answer: Its protein stability index is 1.71.

Question: For YSAYIRRCACAASSDESPGSKNSP, which protein stability index is on record?
Answer: Its protein stability index is 2.28.

Question: For YSAYIRRCACAASSDESPGSKPSP, which protein stability index is on record?
Answer: The protein stability index was 2.02.

Question: With YSAYIRRCACAASSDESPGSKQSP as the variant, how does the protein stability index read?
Answer: Its protein stability index is 2.02.

Question: Which protein stability index does the source give for YSAYIRRCACAASSDESPGSKRSP here?
Answer: Its protein stability index is 2.14.

Question: Which protein stability index does the source give for YSAYIRRCACAASSDESPGSKSSP here?
Answer: Its protein stability index is 2.28.

Question: Which protein stability index does the source give for YSAYIRRCACAASSDESPGSKTSP here?
Answer: Its protein stability index is 2.57.

Question: Which protein stability index does the source give for YSAYIRRCACAASSDESPGSKVSP here?
Answer: Its protein stability index is 2.1.

Question: Which protein stability index does the source give for YSAYIRRCACAASSDESPGSKWSP here?
Answer: The protein stability index was 2.41.

Question: Which protein stability index does the source give for YSAYIRRCACAASSDESPGSKYSP here?
Answer: The protein stability index was 1.65.

Question: For YSAYIRRCACAASSDESPGSKCAP, which protein stability index is on record?
Answer: The protein stability index was 1.87.

Question: With YSAYIRRCACAASSDESPGSKCCP as the variant, how does the protein stability index read?
Answer: Its protein stability index is 2.26.

Question: Which protein stability index does the source give for YSAYIRRCACAASSDESPGSKCDP here?
Answer: The protein stability index was 2.46.

Question: Which protein stability index does the source give for YSAYIRRCACAASSDESPGSKCEP here?
Answer: Its protein stability index is 2.14.

Question: For YSAYIRRCACAASSDESPGSKCFP, which protein stability index is on record?
Answer: Its protein stability index is 1.9.

Question: Which protein stability index does the source give for YSAYIRRCACAASSDESPGSKCGP here?
Answer: The protein stability index was 2.08.

Question: With YSAYIRRCACAASSDESPGSKCHP as the variant, how does the protein stability index read?
Answer: The protein stability index was 1.6.

Question: With YSAYIRRCACAASSDESPGSKCIP as the variant, how does the protein stability index read?
Answer: The protein stability index was 1.4.

Question: With YSAYIRRCACAASSDESPGSKCKP as the variant, how does the protein stability index read?
Answer: The protein stability index was 2.06.

Question: Which protein stability index does the source give for YSAYIRRCACAASSDESPGSKCLP here?
Answer: The protein stability index was 2.08.

Question: For YSAYIRRCACAASSDESPGSKCMP, which protein stability index is on record?
Answer: The protein stability index was 1.61.

Question: For YSAYIRRCACAASSDESPGSKCNP, which protein stability index is on record?
Answer: The protein stability index was 2.17.

Question: For YSAYIRRCACAASSDESPGSKCPP, which protein stability index is on record?
Answer: The protein stability index was 2.02.

Question: With YSAYIRRCACAASSDESPGSKCQP as the variant, how does the protein stability index read?
Answer: Its protein stability index is 2.05.

Question: With YSAYIRRCACAASSDESPGSKCRP as the variant, how does the protein stability index read?
Answer: Its protein stability index is 2.44.

Question: For YSAYIRRCACAASSDESPGSKCTP, which protein stability index is on record?
Answer: Its protein stability index is 2.09.

Question: With YSAYIRRCACAASSDESPGSKCVP as the variant, how does the protein stability index read?
Answer: Its protein stability index is 2.52.

Question: For YSAYIRRCACAASSDESPGSKCWP, which protein stability index is on record?
Answer: The protein stability index was 2.53.

Question: Which protein stability index does the source give for YSAYIRRCACAASSDESPGSKCYP here?
Answer: The protein stability index was 1.5.

Question: With YSAYIRRCACAASSDESPGSKCSA as the variant, how does the protein stability index read?
Answer: The protein stability index was 2.03.

Question: With YSAYIRRCACAASSDESPGSKCSC as the variant, how does the protein stability index read?
Answer: The protein stability index was 4.33.

Question: Which protein stability index does the source give for YSAYIRRCACAASSDESPGSKCSD here?
Answer: Its protein stability index is 2.

Question: For YSAYIRRCACAASSDESPGSKCSE, which protein stability index is on record?
Answer: Its protein stability index is 2.34.

Question: Which protein stability index does the source give for YSAYIRRCACAASSDESPGSKCSF here?
Answer: The protein stability index was 1.35.

Question: With YSAYIRRCACAASSDESPGSKCSG as the variant, how does the protein stability index read?
Answer: The protein stability index was 2.23.

Question: Which protein stability index does the source give for YSAYIRRCACAASSDESPGSKCSH here?
Answer: The protein stability index was 2.54.

Question: With YSAYIRRCACAASSDESPGSKCSI as the variant, how does the protein stability index read?
Answer: Its protein stability index is 2.25.

Question: Which protein stability index does the source give for YSAYIRRCACAASSDESPGSKCSK here?
Answer: Its protein stability index is 2.03.

Question: Which protein stability index does the source give for YSAYIRRCACAASSDESPGSKCSL here?
Answer: The protein stability index was 2.1.

Question: Which protein stability index does the source give for YSAYIRRCACAASSDESPGSKCSM here?
Answer: The protein stability index was 2.24.

Question: For YSAYIRRCACAASSDESPGSKCSN, which protein stability index is on record?
Answer: The protein stability index was 2.31.

Question: Which protein stability index does the source give for YSAYIRRCACAASSDESPGSKCSQ here?
Answer: The protein stability index was 2.04.

Question: For YSAYIRRCACAASSDESPGSKCSR, which protein stability index is on record?
Answer: Its protein stability index is 2.2.

Question: For YSAYIRRCACAASSDESPGSKCSS, which protein stability index is on record?
Answer: Its protein stability index is 1.95.

Question: For YSAYIRRCACAASSDESPGSKCST, which protein stability index is on record?
Answer: Its protein stability index is 2.03.

Question: Which protein stability index does the source give for YSAYIRRCACAASSDESPGSKCSV here?
Answer: The protein stability index was 2.93.

Question: Which protein stability index does the source give for YSAYIRRCACAASSDESPGSKCSW here?
Answer: Its protein stability index is 1.91.

Question: With YSAYIRRCACAASSDESPGSKCSY as the variant, how does the protein stability index read?
Answer: Its protein stability index is 1.54.

Variants of: B2
Assay: as above
Conditions: c terminus: a fixed tail appended

Question: For AEINKNISDFGRQQLLPPFPSLHQ, which protein stability index is on record?
Answer: Its protein stability index is 2.47.

Question: For CEINKNISDFGRQQLLPPFPSLHQ, which protein stability index is on record?
Answer: Its protein stability index is 2.44.

Question: With DEINKNISDFGRQQLLPPFPSLHQ as the variant, how does the protein stability index read?
Answer: Its protein stability index is 2.58.

Question: Which protein stability index does the source give for FEINKNISDFGRQQLLPPFPSLHQ here?
Answer: The protein stability index was 2.3.

Question: With GEINKNISDFGRQQLLPPFPSLHQ as the variant, how does the protein stability index read?
Answer: The protein stability index was 2.7.

Question: For HEINKNISDFGRQQLLPPFPSLHQ, which protein stability index is on record?
Answer: The protein stability index was 2.56.

Question: With IEINKNISDFGRQQLLPPFPSLHQ as the variant, how does the protein stability index read?
Answer: The protein stability index was 1.76.

Question: Which protein stability index does the source give for KEINKNISDFGRQQLLPPFPSLHQ here?
Answer: The protein stability index was 2.74.

Question: Which protein stability index does the source give for LEINKNISDFGRQQLLPPFPSLHQ here?
Answer: Its protein stability index is 2.42.

Question: For MEINKNISDFGRQQLLPPFPSLHQ, which protein stability index is on record?
Answer: The protein stability index was 2.35.

Question: With NEINKNISDFGRQQLLPPFPSLHQ as the variant, how does the protein stability index read?
Answer: Its protein stability index is 2.44.

Question: Which protein stability index does the source give for PEINKNISDFGRQQLLPPFPSLHQ here?
Answer: The protein stability index was 2.54.

Question: For QEINKNISDFGRQQLLPPFPSLHQ, which protein stability index is on record?
Answer: Its protein stability index is 2.73.

Question: Which protein stability index does the source give for REINKNISDFGRQQLLPPFPSLHQ here?
Answer: The protein stability index was 2.55.

Question: With SEINKNISDFGRQQLLPPFPSLHQ as the variant, how does the protein stability index read?
Answer: The protein stability index was 3.23.

Question: Which protein stability index does the source give for TEINKNISDFGRQQLLPPFPSLHQ here?
Answer: Its protein stability index is 2.9.

Question: With VEINKNISDFGRQQLLPPFPSLHQ as the variant, how does the protein stability index read?
Answer: The protein stability index was 2.22.

Question: With WEINKNISDFGRQQLLPPFPSLHQ as the variant, how does the protein stability index read?
Answer: The protein stability index was 1.91.

Question: For YEINKNISDFGRQQLLPPFPSLHQ, which protein stability index is on record?
Answer: The protein stability index was 2.11.

Question: Which protein stability index does the source give for EAINKNISDFGRQQLLPPFPSLHQ here?
Answer: The protein stability index was 2.3.

Question: Which protein stability index does the source give for ECINKNISDFGRQQLLPPFPSLHQ here?
Answer: The protein stability index was 2.35.

Question: For EDINKNISDFGRQQLLPPFPSLHQ, which protein stability index is on record?
Answer: Its protein stability index is 2.72.

Question: With EFINKNISDFGRQQLLPPFPSLHQ as the variant, how does the protein stability index read?
Answer: The protein stability index was 1.74.

Question: For EGINKNISDFGRQQLLPPFPSLHQ, which protein stability index is on record?
Answer: Its protein stability index is 2.51.

Question: With EHINKNISDFGRQQLLPPFPSLHQ as the variant, how does the protein stability index read?
Answer: Its protein stability index is 1.96.

Question: With EIINKNISDFGRQQLLPPFPSLHQ as the variant, how does the protein stability index read?
Answer: Its protein stability index is 2.14.

Question: Which protein stability index does the source give for EKINKNISDFGRQQLLPPFPSLHQ here?
Answer: Its protein stability index is 2.64.

Question: Which protein stability index does the source give for ELINKNISDFGRQQLLPPFPSLHQ here?
Answer: The protein stability index was 2.21.

Question: With EMINKNISDFGRQQLLPPFPSLHQ as the variant, how does the protein stability index read?
Answer: The protein stability index was 2.24.

Question: Which protein stability index does the source give for ENINKNISDFGRQQLLPPFPSLHQ here?
Answer: The protein stability index was 2.29.

Question: With EPINKNISDFGRQQLLPPFPSLHQ as the variant, how does the protein stability index read?
Answer: Its protein stability index is 2.65.

Question: With EQINKNISDFGRQQLLPPFPSLHQ as the variant, how does the protein stability index read?
Answer: The protein stability index was 2.36.

Question: Which protein stability index does the source give for ERINKNISDFGRQQLLPPFPSLHQ here?
Answer: Its protein stability index is 2.17.

Question: Which protein stability index does the source give for ESINKNISDFGRQQLLPPFPSLHQ here?
Answer: The protein stability index was 2.35.

Question: Which protein stability index does the source give for ETINKNISDFGRQQLLPPFPSLHQ here?
Answer: Its protein stability index is 2.85.

Question: With EVINKNISDFGRQQLLPPFPSLHQ as the variant, how does the protein stability index read?
Answer: The protein stability index was 2.12.

Question: Which protein stability index does the source give for EWINKNISDFGRQQLLPPFPSLHQ here?
Answer: Its protein stability index is 1.73.

Question: Which protein stability index does the source give for EYINKNISDFGRQQLLPPFPSLHQ here?
Answer: Its protein stability index is 1.58.

Question: For EEANKNISDFGRQQLLPPFPSLHQ, which protein stability index is on record?
Answer: Its protein stability index is 3.1.

Question: Which protein stability index does the source give for EECNKNISDFGRQQLLPPFPSLHQ here?
Answer: The protein stability index was 2.76.

Question: Which protein stability index does the source give for EEDNKNISDFGRQQLLPPFPSLHQ here?
Answer: Its protein stability index is 3.77.

Question: With EEENKNISDFGRQQLLPPFPSLHQ as the variant, how does the protein stability index read?
Answer: Its protein stability index is 3.78.

Question: Which protein stability index does the source give for EEFNKNISDFGRQQLLPPFPSLHQ here?
Answer: Its protein stability index is 2.91.

Question: Which protein stability index does the source give for EEGNKNISDFGRQQLLPPFPSLHQ here?
Answer: Its protein stability index is 3.01.

Question: Which protein stability index does the source give for EEHNKNISDFGRQQLLPPFPSLHQ here?
Answer: Its protein stability index is 2.71.

Question: With EEKNKNISDFGRQQLLPPFPSLHQ as the variant, how does the protein stability index read?
Answer: The protein stability index was 3.02.
